Test results: the supplement of paper PMC9170038

Tested on: K4 kissing-loop RNA reporter
Assay: apparent KD of K4 kissing-loop reporter; higher = weaker reporter binding
Settings: Eterna round: R107; input ligand: theophylline 20 uM
Procedure: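 RNA-MaP round R107: designed RNA switches with theophylline, tryptophan, arginine or FMN aptamers are transcribed on-chip within common flanks. They are titrated with a labelled K4 kissing-loop RNA reporter in RNA-MaP buffer (100 mM Tris pH 7.5, 80 mM KCl, 4 mM MgCl2), without ligand or with the indicated ligand. Median apparent KD per design.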
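Further: bound reporter read as fluorescence of individual clusters on recovered sequencing chips by microscopy, with normalized cluster intensities fitted with a binding model.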

Sequence	apparent KD of K4 kissing-loop reporter [nM]
AUUUUUUACAGAAGGAGCGUGUUUUUAUAAUCAUUUAUCUUAGCGAGUGAUGUUCGCUUUACACAGGUAGGUCGCUGUUUAUUUA [JR_Nu_ExcArginiB_Sub028]	121
UGUGCUGUGUACUGUAAUGUUAUGCGGGAUACCAGAGUCUUUUUAUUCCCUUGGCAGCUUGAGUGAUGUUUGAUGCUGUUCUUGU [kiokmullin]	331
AACUGCCAAGGAACAUUGUAAGAAGGUGAUACCAGCAUCGAAAGAUGCCCUUGGCAGCACCAACUUGCAGUGAUGUUGCAAGUAA [Design5]	180
GGGACGCUAGCUCGAAUGUAGUGAUUUGAUACCAGCCUGUCACUUGGCCCUUGGCAGCAAAGCAGAGUGAUGUUCUGACCAACCU [theeternabot_sameState_KL_Theo_A_47]	346
GGUGCUGUCUGUGCCGCCUUCCUCGUUCCUCGAGGACCGGUACGGCCGCCACUCGAGUGAUGUUUGGGUAGCGAUCCCUGCUAGC [Bdazzled - #15 Exc. Tryptophan A]	1030
UGUGUUUACCUGACCCAGUGAUGUUGGGAAGGAGCGUGCGAAAGCACAGGUAGGUCGCUCAACCUAAAGUCAGGUGAGCACUAAA [#SwitchBubble 9 #K4Early]	470
CUCGAGUGAUGUUCGUUUAUUUAUACAGAUACCAGUGAAUUUUAACACCCUUGGCAGCUGGUUGUAUCUUUGUUUUUUACACAAG [JR_Nu_ExcTheophyA_Sub024]	338
UGUGUUUACCUGACUCAGUGAUGUUGAGAAGGAGCGUGAGAAAGCACAGGUAGGUCGCUCAACCUAAAUUCAGGUGAGCACUAAA	302
GACGGGCAGUGAUGUUGCCGGUCUCUUGGACGAGGACCGGUACGGCCGCCACUCGAUCUGAUGCGGGAAUUGCAUCUUUUAAUAA [Raorbirabe]	194
GCUACCUAUGCAGGAUAUGGUAUUACGAGUGAUGUUCGAGGCAUAUAGAGUGAUGUUCUAUAUCCACCAGAAGGGCAUAGGUAGC	162
GUAGCACUCGGUAGUGAUGUUAUCGAGGACAAGGAUAUCAUCUCAAUGAGAAGGUGUCCUUGAUAACAGCUACGGGAAUAUCCCA [Omei KL FMN A Exc D v4]	120

Same assay, conditions: Eterna round: R107; input ligand: tryptophan 2.4 mM

Sequence	apparent KD of K4 kissing-loop reporter [nM]
CCAUUCUGUUACGAUACCAGUCAAAGAUAUUUGAUCAAUACCCUCGCCGAGUGAUGUUCGGACCCUUGGCAGCGUCUGGGACAGG [fdxxvmullin]	550
UGACUGGAUUGAAGGAGCGCUAAACUCCUAGUGAUGUUAGGGACACAAGACAAAGUCUUGAGGCAGGUAGGUCGCAAUCUAGUCU [FiskerMod 5 - Jieux - Same State - Arginine B]	265
UUAGUACAUAGAGAUACCAGCCAUCGAAGUGAUGUUUCGAGAAAUAAUGAUGUUGGUAUAGGCCCUUGGCAGCUCUAUGUACAUU [AK1 Exc Theophylline B]	97.4
CUUGAUCGAGGAAGGAGCGGGCCGUCAUUGAGCGCAGUGAUGUUGCGGUCGACUAGUCGAGCCCAGGUAGGUCGCCUGGAGUAAG [Xeveis]	192
GGACAAGUUUCCGAUACCAGCCUUUAUGCUGGACUAGCUUGAUCAGUGGCUAGUGAUGUUGGCCCUUGGCAGCGGGACUCUUCGG [theeternabot_exclusion_KL_Theo_B_10]	218
AAUGUACAGGGAAGGAGCGUCGUCCAGUGAUGUUGGAGUUAAAUACCAGUGAUGUUGGUUAGACAGGUAGGUCGCCCUAAAGUGC [Exclusion Arginine B Gf 3]	88
AGGUUUUGAUUAGGAUAUGCACUGACGACGAGAAUAUAGUGAUGUUAUAUAAUAGGAAUUAGUAGAGUAGAAGGGAUUGAGGUUU [SSFMNB.W]	190
ACUACGAAGACGGCCGCCACUGAUAUUCGUAGAUCCAUCAUUACAUGAGUGAUGUUCAUGUAUAUCAGGACCGGGUCAAGAUGGU [KL-XTryp-B17 #analogue]	226
UUGUUUCCGACGGCCGCCACUGGUUUCUUUGUUGUAGUGAUGUUGCGGUGGAAUGAUAGCGUUAACAGGACCGGGUCGGUGAGAC [theeternabot_sameState_KL_Trp_B_42]	451
AUGGGUUUGGGAGGAUAUCCUUCCCACGUCGAAGUACCGUGCUUGAUGGAGUGAUGUUCGAUCAGAGGAGAAGGCCCGGAUUUAU [Same State FMN B GF21]	536
AGACCACAAAGUGGUCAGUGUUCGCUCCGGCGAGGACCGGUACGGCCGCCACUCGCGAGUGAUGUUCGCGAGCGGAGCGAACACA [Omei KL Tryp A Exc A v2]	95.1
AAUUAAUACAGAAGGAGCGUGAAAUUAUCUAUUUUUUUUUUAGCUAGUGAUGUUAGCAUUUCACAGGUAGGUCGCUGUAUAUUUA [JR_SSArginiB_Sub009]	138
CGCGUGGGUUUGAGAGGGUUUGUGCGAAGUGAGGAUAUUUAGGGAGAAAGAAGGCACUAUAAAAUAUAGUGAUGUUAUAUAAGGG [SSFMNA.K]	227
AAAAUUGCGGUCGAAUUAACUUCUUGCAUACGAGGACCGGUACGGCCGCCACUCGAGUCAAGUGAUGUUUGAUAAUCUAUUAUUA [JR_ExcTryptoA_Sub011]	160
UGGGUGUAGUGAUGUUAUAUAGAGAGUGAUACCAGCGUAGAGAGAUGCCCUUGGCAGCAUAGAAGAGUAUCAUUGGAGGAGGAGG [ExTheophyl.Az]	514
CGCGCUGGUUGAGAGGUUGGCGCGAAUGAUACCAGUAUAUAAGAAUACCCUUGGCAGCAUAAGAAAGAUAUAGUGAUGUUGUAUA [SSTheophA.H]	370
UUCUAGCCGAAAGGCUAGUCGGCUUCAGAUACCAGUCGCGAAAGCGACCCUUGGCAGCUGUGUAGUGAUGUUGCAAAGAAAGCCG	524
ACAUGAGUGAUGUUCAUGUGGAGCAGGGUACGAGGACCGGUACGGCCGCCACUCGAGAGUUAUGACGAGUUAAUGGCAACGAUGU [KL-Tryp-A8 #analogue]	103
UUGCAAAAGUCGGCCGCCACUCCGGGCCCUAUAAAUGGGCGCAGUGAUGUUGCGGCUAGGCCUCUGAGGACCGGGACUUUGUAGC [Aenonlebe]	199
UGACUGGACUGAAGGAGCGAGCGAGACAAAGUCUCGAAAUCCUAGUGAUGUUAGGAAAUAACUCAGGUAGGUCGCAGUCUAGUCU [ArgBS 9 #SwitchBubble #StaticStem]	173
GUGGUACAGGCGGCCGCCACUAGUGAUGUUAGUGAUAGAAGAUAUAGUAUAUAUCGGCAUUUAGUUAGGACCGGGCCUGGUGGUG [wwwrcmullin]	337
CGGCUCAAUCCUAGUAUUAAGAGGGAGUUGCGAGGACCGGUACGGCCGCCACUCGAAGUAGUUUGGCCAGUGAUGUUGGUCUUAC [Mabeleon]	121

Sequence	apparent KD of K4 kissing-loop reporter [nM]
AAGUGAUGUUGUAGUGAUGUUGUGAUGUUGCAGGAUAUAUAGUGAUGUAGAAGGGUAAGUACUUAUUUUUUUUUUGAGUUAUGUU [crrczrmullin]	65.4
UCGUCCGGAUUACUCGUGGUCAUGGUCGAUACCAGUAGAUUAAUCUACCCUUGGCAGCGACAUGAGUGAUGUUCAUGUGCAAUGA [KL-XTheo-A6 #analogue]	383
GGGAGUAGUGCGGCCGCCACUGAGAAAGAAGAAGAAUAUAGUGAUGUUAUAUAGGAAAGGAAGAACAGGACCGGGCAUUAGAUUU [SSTRyptB.F]	180
AGGCGACGCAAAGGAUAUCACGGUUUUCUAGUGAUGUUAGUCAAGACCGACCGAGAAAUCAGUGUUUGAGAAGGUUGAACGUCGC [theeternabot_sameState_KL_FMN_B_46]	970
AAGCAGUCACGCGAAGCCAUCGAAGAUGGUCGAGGACCGGUACGGCCGCCACUCGGAGUGAUGUUCCGAAGACUGCAAAAUAAAA	341
AAGCAGUCACUCGAAUCCAUCGAAGAUGGACGAGGACCGGUACGGCCGCCACUCGGAGUGAUGUUCCGAAGACUGCAAAAUAAAA	482
ACCUGUGACUGAAGGAGCGUCUACUCCAGAGGAUGGAGUGAUGUUCCACUUUAAUGGAGUGGACAGGUAGGUCGCAGUCAUAGGA [Arg B SS t6]	115
CCUUGGGCACGCCCACUAGGAAGCUAGUCUAAGGAUAUCGACUGGACGAGAAGGUAGACGGACCCGAGUGAUGUUCGGACAUAGG [theeternabot_sameState_KL_FMN_A_1]	200
UCGGACCCUGGAGGAUAUGAGUCGAGUGAUGUUCGGCGGUCCAUGCCGGUGCGGCGUUAUGCCCUUUUAGAAGGCCAGGGUCCGA [#2 Exclusion - FMN B Attempt #11 (HarryS)]	212
GGUAGCGCUAGAGAUACCAGUCAUAUCGCUCUGGAGUGAUGUUCCGGAACGUGCGGAGAAGACCCUUGGCAGCUCAUGACGGUGU [Exclusion Theophylline B GF 4]	214
UAUUGAUUGUCAGGAUAUCGUAAACGAGUGAUGUUCGUAUAUUGACGAUAGUCAAUUCUAUCUGAACGAGAAGGGACAUUAUUUA [JR_SSFMNB_Sub009]	308
AUUUUUUACAGAAGGAGCGUGUUUUUAUAAUCAUUUAUCUUAGCGAGUGAUGUUCGCUUUACACAGGUAGGUCGCUGUUUAUUUA [JR_Nu_ExcArginiB_Sub028]	85.7
UGUGCUGUGUACUGUAAUGUUAUGCGGGAUACCAGAGUCUUUUUAUUCCCUUGGCAGCUUGAGUGAUGUUUGAUGCUGUUCUUGU [kiokmullin]	314
AACUGCCAAGGAACAUUGUAAGAAGGUGAUACCAGCAUCGAAAGAUGCCCUUGGCAGCACCAACUUGCAGUGAUGUUGCAAGUAA [Design5]	159
GGGACGCUAGCUCGAAUGUAGUGAUUUGAUACCAGCCUGUCACUUGGCCCUUGGCAGCAAAGCAGAGUGAUGUUCUGACCAACCU [theeternabot_sameState_KL_Theo_A_47]	144
GGUGCUGUCUGUGCCGCCUUCCUCGUUCCUCGAGGACCGGUACGGCCGCCACUCGAGUGAUGUUUGGGUAGCGAUCCCUGCUAGC [Bdazzled - #15 Exc. Tryptophan A]	917
UGUGUUUACCUGACCCAGUGAUGUUGGGAAGGAGCGUGCGAAAGCACAGGUAGGUCGCUCAACCUAAAGUCAGGUGAGCACUAAA [#SwitchBubble 9 #K4Early]	328
CUCGAGUGAUGUUCGUUUAUUUAUACAGAUACCAGUGAAUUUUAACACCCUUGGCAGCUGGUUGUAUCUUUGUUUUUUACACAAG [JR_Nu_ExcTheophyA_Sub024]	154
UGUGUUUACCUGACUCAGUGAUGUUGAGAAGGAGCGUGAGAAAGCACAGGUAGGUCGCUCAACCUAAAUUCAGGUGAGCACUAAA	204
GACGGGCAGUGAUGUUGCCGGUCUCUUGGACGAGGACCGGUACGGCCGCCACUCGAUCUGAUGCGGGAAUUGCAUCUUUUAAUAA [Raorbirabe]	333
GCUACCUAUGCAGGAUAUGGUAUUACGAGUGAUGUUCGAGGCAUAUAGAGUGAUGUUCUAUAUCCACCAGAAGGGCAUAGGUAGC	164
GUAGCACUCGGUAGUGAUGUUAUCGAGGACAAGGAUAUCAUCUCAAUGAGAAGGUGUCCUUGAUAACAGCUACGGGAAUAUCCCA [Omei KL FMN A Exc D v4]	127
